{"source": "paper PMC2447174", "about": "“A Cytoplasmic Domain Mutation in ClC-Kb Affects Long-Distance Communication Across the Membrane” (PLoS ONE, 2008)", "proteins": {"B1": {"name": "ClC-Kb C-terminal domain (domain or fragment, human, UniProt P51801 538-684, looked up)", "chain": "RNIGSHRVRVEHFMNHSITTLAKDMPLEEVVKVVTSTDVAKYPLVESTESQILVGIVRRAQLVQALKAEPPSWAPGHQQCLQDILAAGCPTEPVTLKLSPETSLHEAHNLFELLNLHSLFVTSRGRAVGCVSWVEMKKAISNLTNPP", "notes": "ClC-Kb chloride channel, human, C-terminal cytoplasmic domain, amino acids 538-684; read here as KbC following MBP; MBP was removed with Factor Xa and washed away on the cation-exchange column; also called ClC-Kb cytoplasmic domain; ClC-Kb C-terminal cytoplasmic domain; source: E. coli, purified (amylose column, Factor Xa digestion, cation exchange); not shown: MBP, N-terminal, cleaved"}, "B2": {"name": "ClC-Kb C-terminal domain with the L650C mutation (domain or fragment, human, UniProt P51801 538-684, looked up)", "chain": "RNIGSHRVRVEHFMNHSITTLAKDMPLEEVVKVVTSTDVAKYPLVESTESQILVGIVRRAQLVQALKAEPPSWAPGHQQCLQDILAAGCPTEPVTLKLSPETSLHEAHNLFECLNLHSLFVTSRGRAVGCVSWVEMKKAISNLTNPP", "notes": "ClC-Kb chloride channel, human, C-terminal cytoplasmic domain, amino acids 538-684, L650C; also called ClC-Kb-L650C; L650C mutant; source: E. coli, purified (amylose column, Factor Xa digestion, cation exchange); not shown: MBP, N-terminal, cleaved"}, "B3": {"name": "ClC-Kb C-terminal domain double mutant K604C-A644C (domain or fragment, human, UniProt P51801 538-684, looked up)", "chain": "RNIGSHRVRVEHFMNHSITTLAKDMPLEEVVKVVTSTDVAKYPLVESTESQILVGIVRRAQLVQALCAEPPSWAPGHQQCLQDILAAGCPTEPVTLKLSPETSLHECHNLFELLNLHSLFVTSRGRAVGCVSWVEMKKAISNLTNPP", "notes": "ClC-Kb chloride channel, human, C-terminal cytoplasmic domain, amino acids 538-684, K604C and A644C; also called 604-644 cysteine double mutant; source: E. coli, purified (amylose column, Factor Xa digestion, cation exchange); not shown: MBP, N-terminal, cleaved"}, "B4": {"name": "ClC-Kb C-terminal domain double mutant L603C-H645C (domain or fragment, human, UniProt P51801 538-684, looked up)", "chain": "RNIGSHRVRVEHFMNHSITTLAKDMPLEEVVKVVTSTDVAKYPLVESTESQILVGIVRRAQLVQACKAEPPSWAPGHQQCLQDILAAGCPTEPVTLKLSPETSLHEACNLFELLNLHSLFVTSRGRAVGCVSWVEMKKAISNLTNPP", "notes": "ClC-Kb chloride channel, human, C-terminal cytoplasmic domain, amino acids 538-684, L603C and H645C; also called 603-645 cysteine double mutant; source: E. coli, purified (amylose column, Factor Xa digestion, cation exchange); not shown: MBP, N-terminal, cleaved"}}, "key": {"[1]": {"molecular_target": "the molecule itself", "test": "SEC-MALS; Shodex PROTEIN KW-802.5 column, 200 mM NaCl, 20 mM Tris-Cl pH 7.5, protein at 1 mg/mL, room temperature (23°C); self-association, dimer"}, "[2]": {"molecular_target": "the molecule itself", "test": "cross-linking; spontaneous disulfide cross-linking of introduced cysteines in purified KbC in TBS7.5 (200 mM NaCl, 10 mM Tris pH 7.5, 5 mM ß-mercaptoethanol); SDS-PAGE in reducing (250 mM ß-mercaptoethanol) and oxidizing conditions"}, "[3]": {"molecular_target": "the molecule itself", "test": "SEC-MALS; data not shown; 'monodispersed dimers, as observed with wild-type'; method taken from the wild-type experiment"}}, "data": [{"protein": "B1", "values": [{"measurement": "stoichiometry N", "setting": "[1]", "result": 2}]}, {"protein": "B2", "values": [{"measurement": "binding result", "setting": "[2]", "result": "binds"}]}, {"protein": "B3", "values": [{"measurement": "stoichiometry N", "setting": "[3]", "result": 2}]}, {"protein": "B4", "values": [{"measurement": "stoichiometry N", "setting": "[3]", "result": 2}]}]}
